According to patent US20150328292A1, “CASPASE POLYPEPTIDES HAVING MODIFIED ACTIVITY AND USES THEREOF” (BELLICUM PHARMACEUTICALS, INC., priority 2014, published 2015):
Substitutions are numbered along the chain they refer to. Numbers in names are those of the source. Where no limit is named, active and inactive come without a cut-off here. Entries after “also recorded” stand apart in the source; their conditions may differ.

B1: D327G: chimeric modified caspase-9 polypeptide variant (protein)
chain: VDGFGDVGALESLRGNADLAYILSMEPCGHCLIINNVNFCRESGLRTRTGSNIDCEKLRRRFSSLHFMVEVKGDLTAKKMVLALLELARQDHGALDCCVVVILSHGCQASHLQFPGAVYGTDGCPVSVEKIVNIFNGTSCPSLGGKPKLFFIQACGGEQKDHGFEVASTSPEDESPGSNPEPDATPFQEGLRTFGQLDAISSLPTPSDIFVSYSTFPGFVSWRDPKSGSWYVETLDDIFEQWAHSEDLQSLLLRVANAVSVKGIYKQMPGCFNFLRKKLFFKTSASRA
B2: T317C: chimeric modified caspase-9 polypeptide variant (protein)
chain: B1 chain with T185C, G195D
B3: Q328K: chimeric modified caspase-9 polypeptide variant (protein)
chain: B1 chain with G195D, Q196K
B4: L329G: chimeric modified caspase-9 polypeptide variant (protein)
chain: B1 chain with G195D, L197G
B5: D327R: chimeric modified caspase-9 polypeptide variant (protein)
chain: B1 chain with G195R
B6: F326K: chimeric modified caspase-9 polypeptide variant (protein)
chain: B1 chain with F194K, G195D
B7: A331K: chimeric modified caspase-9 polypeptide variant (protein)
chain: B1 chain with G195D, A199K
B8: Q328R: chimeric modified caspase-9 polypeptide variant (protein)
chain: B1 chain with G195D, Q196R
B9: D327K: chimeric modified caspase-9 polypeptide variant (protein)
chain: B1 chain with G195K
B10: T317S: chimeric modified caspase-9 polypeptide variant (protein)
chain: B1 chain with T185S, G195D
B11: T317A: chimeric modified caspase-9 polypeptide variant (protein)
chain: B1 chain with T185A, G195D
B12: L329K: chimeric modified caspase-9 polypeptide variant (protein)
chain: B1 chain with G195D, L197K
B13: A316G: chimeric modified caspase-9 polypeptide variant (protein)
chain: B1 chain with A184G, G195D
B14: D315A-D330A: chimeric modified caspase-9 polypeptide double mutant (protein, UniProt P55211 1-416, looked up, variant D315A D330A)
chain: MDEADRRLLRRCRLRLVEELQVDQLWDALLSRELFRPHMIEDIQRAGSGSRRDQARQLIIDLETRGSQALPLFISCLEDTGQDMLASFLRTNRQAAKLSKPTLENLTPVVLRPEIRKPEVLRPETPRPVDIGSGGFGDVGALESLRGNADLAYILSMEPCGHCLIINNVNFCRESGLRTRTGSNIDCEKLRRRFSSLHFMVEVKGDLTAKKMVLALLELAQQDHGALDCCVVVILSHGCQASHLQFPGAVYGTDGCPVSVEKIVNIFNGTSCPSLGGKPKLFFIQACGGEQKDHGFEVASTSPEDESPGSNPEPAATPFQEGLRTFDQLAAISSLPTPSDIFVSYSTFPGFVSWRDPKSGSWYVETLDDIFEQWAHSEDLQSLLLRVANAVSVKGIYKQMPGCFNFLRKKLFFKTS
modifications: chimeric, fused to FKBP12v36
notes: chimeric modified caspase-9 polypeptide double mutant
B15: F319A: chimeric modified caspase-9 polypeptide variant (protein, UniProt P55211 1-416, looked up, variant F319A)
chain: B14 chain with A315D, F319A, A330D
modifications: chimeric, fused to FKBP12v36
notes: chimeric modified caspase-9 polypeptide variant
B16: P318A: chimeric modified caspase-9 polypeptide variant (protein, UniProt P55211 1-416, looked up, variant P318A)
chain: B14 chain with A315D, P318A, A330D
modifications: chimeric, fused to FKBP12v36
notes: as for B15
B17: ^316ATPF^319AVPI: caspase-9 with ATPF tetrapeptide replaced by SMAC/DIABLO AVPI (protein, UniProt P55211 1-416, looked up, variant T317V F319I)
chain: B14 chain with A315D, T317V, F319I, A330D
B18: F319W: chimeric modified caspase-9 polypeptide variant (protein, UniProt P55211 1-416, looked up, variant F319W)
chain: B14 chain with A315D, F319W, A330D
modifications: chimeric, fused to FKBP12v36
notes: as for B15

Each molecule was assayed on HEK293T/16 cells (assay: SEAP reporter-based surrogate killing assay (basal activity and AP1903 IC50)). Conditions: AP1903-independent SEAP activity, vs wild type.
Assay type: cell-based, human
Method: FIG. 45 provides a schematic of an analysis of SEAP assays. […] of the mixture was seeded onto each well of a 96-well plate. […] For the assay, 4-methylumbelliferyl phosphate substrate was hydrolyzed by SEAP to 4-methylumbelliferon, a metabolite that can be excited with 364 nm and detected with an emission filter of 448 nm. Since SEAP is used as a marker for cell viability, reduced SEAP reading corresponds with increased icaspase-9 activities.
Early passage HEK293T/16 cells (ATCC, Manassas, Va.) were maintained in IMDM, GlutaMAX™ (Life Technologies, Carlsbad, Calif.) supplemented with 10% FBS, 100 U/mL penicillin, and 100 […] until transfection in a humidified, 37° C., 5% CO2/95% air atmosphere. Cells in logarithmic-phase growth were transiently transfected with 800 ng to 2 μg of expression plasmid encoding iCasp9 mutants and 500 ng of an expression plasmid encoding SRα promoter driven SEAP per million cells in 15-mL conical tubes. […] GeneJammer® Transfection Reagent at a ratio of 3 μl per ug of plasmid DNA was used to transiently transfect HEK293T/16 cells in the absence of antibiotics. 100 μl or 2 mL of the transfection mixture was added to each well in 96-well or 6-well plate, respectively.
Briefly, after 65° C. heat denaturation for 45 minutes to reduce background caused by endogenous (and serum-derived) alkaline phosphatases that are sensitive to heat, 5 μl of supernatants was added to 95 μl of PBS and added to 100 μl of substrate buffer, containing 1 μl of 100 mM 4-methylumbelliferyl phosphate (4-MUP; Sigma, St. Louis, Mo.) re-suspended in 2 M diethanolamine. Hydrolysis of 4-MUP by SEAP produces a fluorescent […] with excitation/emission (355/460 nm), which can be easily measured. Assays were performed in black opaque 96-well plates to minimize fluorescence leakage between wells (FIG. 45).
In the case of B1, the “basal activity / basal signaling (in words)” value is reported as “did not lower basal activity”.
For B2, the “basal activity / basal signaling (in words)” value was “no effect”.
With B3 the “basal activity / basal signaling (in words)” value was “did not lower basal activity”.
With B4 the “basal activity / basal signaling (in words)” value was “did not lower basal activity”.
B5 was tested, and the “basal activity / basal signaling (in words)” value was “did not lower basal activity”.
B6 was tested, and the “basal activity / basal signaling (in words)” value was “did not lower basal activity”.
For B7, the “basal activity / basal signaling (in words)” value was “did not lower basal activity”.
For B8, the “basal activity / basal signaling (in words)” value was “did not lower basal activity”.
For B9, the “basal activity / basal signaling (in words)” value was “did not lower basal activity”.
In the case of B10, the “basal activity / basal signaling (in words)” value is reported as “lower basal activity; also recorded: reduce basal activity; also recorded: decrease in basal activity”.
In the case of B11, the “basal activity / basal signaling (in words)” value is reported as “lower basal activity; also recorded: reduce basal activity; also recorded: decrease in basal activity”.
For B12, the “basal activity / basal signaling (in words)” value was “did not lower basal activity”.
In the case of B13, the “basal activity / basal signaling (in words)” value is reported as “lower basal activity”.
With B14 the “basal activity / basal signaling (in words)” value was “inactive”.
For B15, the “basal activity / basal signaling (in words)” value was “no effect”.
For B16, the “basal activity / basal signaling (in words)” value was “no effect”.
B17 was tested, and the “basal activity / basal signaling (in words)” value was “no effect”.
In the case of B18, the “basal activity / basal signaling (in words)” value is reported as “lower basal activity”.
